Columns and labels:
[1] = target: T1, Anti-CD28 Fab (SEQ ID NOs: 202, 203); test: phage ELISA on captured biotinylated Fab;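 also: wells preblocked with or without CD28 antigen, then clonal phage supernatant added briefly, washed, and bound phage read out by ELISA using HRP-linked anti-M13 antibody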
T1 construct: biotinylated and captured on neutravidin coated plates in the phage ELISA
Description: (§1) Clonal phage were harvested as crude supernatants and screened via standard ELISAs. […] Prior to the addition of clonal phage, wells were incubated with blocking buffer and CD28 antigen or blocking buffer alone. Without washing or aspirating, clonal phage supernatants were then added to the wells and incubated for a short time. Wells were then washed followed by detection of bound phage using a horse radish conjugated anti-M13 antibody.

[2] = target: T1, Anti-CD28 Fab (SEQ ID NOs: 202, 203); test: phage ELISA on captured Fab, wells pre-incubated with CD28 antigen (competitor: CD28);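 also: bound clonal phage detected with an HRP-linked anti-M13 antibody, compared against wells that received blocking buffer alone without CD28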
Description: as §1

T1 sequence (VH, as listed by the source, chain 1 of 2): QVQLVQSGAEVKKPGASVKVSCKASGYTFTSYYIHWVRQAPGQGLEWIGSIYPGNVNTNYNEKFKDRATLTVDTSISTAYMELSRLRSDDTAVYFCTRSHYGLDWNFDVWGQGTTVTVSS
T1 sequence (VL, as listed by the source, chain 2 of 2): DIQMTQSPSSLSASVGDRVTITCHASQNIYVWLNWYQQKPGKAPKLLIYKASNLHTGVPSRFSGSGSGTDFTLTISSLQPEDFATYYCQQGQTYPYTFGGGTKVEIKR

Row | Binder | Anti-CD28 Fab signal [1] | Anti-CD28 Fab signal in the presence of CD28 [2]
1 | YCDGHAPEYIYKCL [Phage-164] | 2.18 | 0.06
2 | YCDGHLPEYIEKCL [Phage-159] | 2.19 | 0.07
3 | YCAGHLPEYIDKCL [Phage-219] | 2.07 | 0.08
4 | YCAGHLPEYISKCL [Phage-188] | 2.14 | 0.08
5 | YCDGHKAEYMDKCL [Phage-150] | 2.2 | 0.07
6 | YCSGHLPEYMSKCL [Phage-245] | 2.03 | 0.09
7 | YCSGHLPEYMEKCL [Phage-210] | 2.09 | 0.09
8 | YCEGHLPEYMSKCL [Phage-181] | 2.15 | 0.07
9 | YCDGHSPEYMTKCL [Phage-294] | 1.93 | 0.07
10 | YCDGHLGIYMWKCL [Phage-183] | 2.14 | 0.08
11 | YCDGHLGIYMTKCL [Phage-268] | 1.98 | 0.08
12 | YCDGHLPEYLPKCL [Phage-153] | 2.19 | 0.09
13 | YCDGHLPEYLSKCL [Phage-155] | 2.19 | 0.07
14 | YCEGHSLEYIGKCL [Phage-186] | 2.14 | 0.06
15 | YCDGHLPQYKAKCL [Phage-160] | 2.19 | 0.09
16 | YCDGHAPEYMLKCL [Phage-151] | 2.2 | 0.07
17 | YCDGHAPQYMGKCL [Phage-227] | 2.06 | 0.08
18 | YCDGHMPEYMLKCL [Phage-199] | 2.11 | 0.09
19 | YCMGHAPEYMEKCL [Phage-290] | 1.93 | 0.07
20 | YCDGHMPEYMEKCL [Phage-292] | 1.93 | 0.09
21 | YCDGHAPDYMLKCL [Phage-152] | 2.2 | 0.09
22 | YCDGHAPQYMLKCL [Phage-194] | 2.12 | 0.09
23 | YCEGHAEEYMQKCL [Phage-163] | 2.18 | 0.06
24 | YCDGHQPEYMAKCL [Phage-187] | 2.14 | 0.07

Row | Binder | Anti-CD28 Fab signal [1] | Anti-CD28 Fab signal in the presence of CD28 [2]
25 | YCEGHSAEYMAKCL [Phage-184] | 2.14 | 0.06
26 | YCDGHSSEYMWKCL [Phage-244] | 2.03 | 0.06
27 | YCEGHSMEYMAKCL [Phage-295] | 1.92 | 0.07
28 | YCDGHSAEYMMKCL [Phage-192] | 2.12 | 0.08
29 | YCEGHSAEYMNKCL [Phage-226] | 2.06 | 0.07
30 | YCDGHASEYMWKCL [Phage-286] | 1.94 | 0.06
31 | YCEGHSAEYMWKCL [Phage-213] | 2.08 | 0.09
32 | YCDGHSAEYMSKCL [Phage-204] | 2.1 | 0.06
33 | YCDGHASEYMMKCL [Phage-237] | 2.05 | 0.06
34 | YCEGHLPQYLAKCL [Phage-190] | 2.12 | 0.1
35 | YCAGHLPEYFLKCL [Phage-156] | 2.19 | 0.08
36 | YCDGHSDEYMAKCL [Phage-185] | 2.14 | 0.07
37 | YCDGHSPLYIWKCL [Phage-157] | 2.19 | 0.09
38 | YCDGHSPDYIWKCL [Phage-289] | 1.93 | 0.1
39 | YCDGHTQEYIAKCL [Phage-167] | 2.17 | 0.06
40 | YCDGHSQEYIAKCL [Phage-265] | 1.99 | 0.07
41 | YCMGHLPQYMEKCL [Phage-212] | 2.08 | 0.08
42 | YCVGHLPQYMEKCL [Phage-267] | 1.98 | 0.08
43 | YCMGHLPQYMQKCL [Phage-166] | 2.18 | 0.11
44 | YCDGHAVEYMAKCL [Phage-161] | 2.18 | 0.1
45 | YCDGHMPEYIAKCL [Phage-154] | 2.19 | 0.08
46 | YCAGHLPEYMQKCL [Phage-182] | 2.15 | 0.09
47 | YCDGHLEEYKQKCL [Phage-165] | 2.18 | 0.08
48 | YCDGHSIEYRWKCL [Phage-162] | 2.18 | 0.06
